Key:
[1] = target: HIV-1 Env of pseudovirus isolate MGRM-G-016 (HIV-1); experiment: cell-based or functional assay
[2] = target: HIV-1 Env of pseudovirus isolate MGRM-G-001 (HIV-1); experiment: cell-based or functional assay
[3] = target: HIV-1 Env of pseudovirus isolate MGRM-G-006 (HIV-1); experiment: cell-based or functional assay
[4] = target: envelope of aMLV pseudovirus (negative control); experiment: cell-based or functional assay
[5] = target: HIV-1 Env of pseudovirus isolate MGRM-G-004 (HIV-1); experiment: cell-based or functional assay
[6] = target: HIV-1 Env of pseudovirus isolate MGRM-G-011 (HIV-1); experiment: cell-based or functional assay
[7] = target: HIV-1 Env of pseudovirus isolate MGRM-G-009 (HIV-1); experiment: cell-based or functional assay
[8] = target: HIV-1 Env of pseudovirus isolate MGRM-G-027 (HIV-1); experiment: cell-based or functional assay
[9] = target: HIV-1 Env of pseudovirus isolate MGRM-G-013 (HIV-1); experiment: cell-based or functional assay
[10] = target: HIV-1 Env of pseudovirus isolate MGRM-G-019 (HIV-1); experiment: cell-based or functional assay
[11] = target: HIV-1 Env of pseudovirus isolate MGRM-G-015 (HIV-1); experiment: cell-based or functional assay
[12] = target: HIV-1 Env of pseudovirus isolate MGRM-G-014 (HIV-1); experiment: cell-based or functional assay
[13] = target: HIV-1 Env of pseudovirus isolate MGRM-G-017 (HIV-1); experiment: cell-based or functional assay
WT JR-FL gp120 (HIV-1) = experiment: ELISA, antigen-coated wells
[14] = target: HIV-1 92UG024 Env (pseudovirus) (HIV-1); experiment: cell-based or functional assay
[15] = target: HIV-1 92RW020 Env (pseudovirus) (HIV-1); experiment: cell-based or functional assay
[16] = target: HIV-1 MGRM-C-027 Env (pseudovirus) (HIV-1); experiment: cell-based or functional assay
[17] = target: HIV-1 CMU02 Env (pseudovirus) (HIV-1); experiment: cell-based or functional assay
[18] = target: HIV-1 92TH021 Env (pseudovirus) (HIV-1); experiment: cell-based or functional assay
[19] = target: HIV-1 94UG103 Env (pseudovirus) (HIV-1); experiment: cell-based or functional assay
[20] = target: HIV-1 APV6 Env (pseudovirus) (HIV-1); experiment: cell-based or functional assay
[21] = target: HIV-1 92UG005 Env (pseudovirus) (HIV-1); experiment: cell-based or functional assay
[22] = target: HIV-1 MGRM-D-018 Env (pseudovirus) (HIV-1); experiment: cell-based or functional assay
[23] = target: HIV-1 JRCSF Env (pseudovirus) (HIV-1) (UniProt P20871); experiment: cell-based or functional assay
[24] = target: HIV-1 MGRM-C-028 Env (pseudovirus) (HIV-1); experiment: cell-based or functional assay
[25] = target: HIV-1 93IN905 Env (pseudovirus) (HIV-1); experiment: cell-based or functional assay
[26] = target: HIV-1 NL43 Env (pseudovirus) (HIV-1); experiment: cell-based or functional assay
[27] = target: HIV-1 MGRM-C-026 Env (pseudovirus) (HIV-1); experiment: cell-based or functional assay
[28] = target: HIV-1 MGRM-A-010 Env (pseudovirus) (HIV-1); experiment: cell-based or functional assay

## 5136_H01 (PGT-131) (antibody)
[1]
  IC50 (µg/mL), pseudovirus neutralization: > 50 µg/mL
[2]
  IC50 (µg/mL), pseudovirus neutralization: 0.404 µg/mL
[3]
  IC50 (µg/mL), pseudovirus neutralization: > 50 µg/mL
[4]
  IC50 (µg/mL), pseudovirus neutralization: > 50 µg/mL
[5]
  IC50 (µg/mL), pseudovirus neutralization: > 50 µg/mL
[6]
  IC50 (µg/mL), pseudovirus neutralization: > 50 µg/mL
[7]
  IC50 (µg/mL), pseudovirus neutralization: > 50 µg/mL
[8]
  IC50 (µg/mL), pseudovirus neutralization: 2.9 µg/mL
[9]
  IC50 (µg/mL), pseudovirus neutralization: > 50 µg/mL
[10]
  IC50 (µg/mL), pseudovirus neutralization: > 50 µg/mL
[11]
  IC50 (µg/mL), pseudovirus neutralization: > 50 µg/mL
[12]
  IC50 (µg/mL), pseudovirus neutralization: 4.31 µg/mL
[13]
  IC50 (µg/mL), pseudovirus neutralization: > 50 µg/mL
WT JR-FL gp120 (HIV-1)
  EC50: 0.4 µg/mL

## 5147_N06 (PGT-130) (antibody)
[14]
  Neutralization by PGT-130, IC50: > 10 µg/mL
  Neutralization by PGT-130, IC80: > 10 µg/mL
  Neutralization by PGT-130, IC90: > 10 µg/mL
  Neutralization by PGT-130, IC95: > 10 µg/mL
  neutralization IC50 (pseudovirus): > 10 µg/mL
[15]
  Neutralization by PGT-130, IC50: 0.014 µg/mL
  Neutralization by PGT-130, IC80: 0.508 µg/mL
  Neutralization by PGT-130, IC90: 3.68 µg/mL
  Neutralization by PGT-130, IC95: > 10 µg/mL
  neutralization IC50 (pseudovirus): 0.014 µg/mL
[16]
  Neutralization by PGT-130, IC50: 0.0052 µg/mL
  Neutralization by PGT-130, IC80: 0.0318 µg/mL
  Neutralization by PGT-130, IC90: 0.106 µg/mL
  Neutralization by PGT-130, IC95: 0.464 µg/mL
  neutralization IC50 (pseudovirus): 0.0052 µg/mL
[17]
  Neutralization by PGT-130, IC50: > 10 µg/mL
  Neutralization by PGT-130, IC80: > 10 µg/mL
  Neutralization by PGT-130, IC90: > 10 µg/mL
  Neutralization by PGT-130, IC95: > 10 µg/mL
  neutralization IC50 (pseudovirus): > 10 µg/mL
[1]
  IC50 (µg/mL), pseudovirus neutralization: > 50 µg/mL
[18]
  Neutralization by PGT-130, IC50: 0.0082 µg/mL
  Neutralization by PGT-130, IC80: 0.0261 µg/mL
  Neutralization by PGT-130, IC90: 0.0513 µg/mL
  Neutralization by PGT-130, IC95: 0.0963 µg/mL
  neutralization IC50 (pseudovirus): 0.0082 µg/mL
[2]
  IC50 (µg/mL), pseudovirus neutralization: 0.0198 µg/mL
[3]
  IC50 (µg/mL), pseudovirus neutralization: > 50 µg/mL
[4]
  IC50 (µg/mL), pseudovirus neutralization: > 50 µg/mL
[19]
  Neutralization by PGT-130, IC50: 0.635 µg/mL
  Neutralization by PGT-130, IC80: > 10 µg/mL
  Neutralization by PGT-130, IC90: > 10 µg/mL
  Neutralization by PGT-130, IC95: > 10 µg/mL
  neutralization IC50 (pseudovirus): 0.635 µg/mL
[5]
  IC50 (µg/mL), pseudovirus neutralization: > 50 µg/mL
[20]
  Neutralization by PGT-130, IC50: > 10 µg/mL
  Neutralization by PGT-130, IC80: > 10 µg/mL
  Neutralization by PGT-130, IC90: > 10 µg/mL
  Neutralization by PGT-130, IC95: > 10 µg/mL
  neutralization IC50 (pseudovirus): > 10 µg/mL
[21]
  Neutralization by PGT-130, IC50: 0.474 µg/mL
  Neutralization by PGT-130, IC80: > 10 µg/mL
  Neutralization by PGT-130, IC90: > 10 µg/mL
  Neutralization by PGT-130, IC95: > 10 µg/mL
  neutralization IC50 (pseudovirus): 0.474 µg/mL
[6]
  IC50 (µg/mL), pseudovirus neutralization: > 50 µg/mL
[22]
  Neutralization by PGT-130, IC50: 0.0378 µg/mL
  Neutralization by PGT-130, IC80: 0.289 µg/mL
  Neutralization by PGT-130, IC90: 2.31 µg/mL
  Neutralization by PGT-130, IC95: > 10 µg/mL
  neutralization IC50 (pseudovirus): 0.0378 µg/mL
[7]
  IC50 (µg/mL), pseudovirus neutralization: > 50 µg/mL
[8]
  IC50 (µg/mL), pseudovirus neutralization: 4.14 µg/mL
[9]
  IC50 (µg/mL), pseudovirus neutralization: > 50 µg/mL
[23]
  Neutralization by PGT-130, IC50: 0.0089 µg/mL
  Neutralization by PGT-130, IC80: 0.0317 µg/mL
  Neutralization by PGT-130, IC90: 0.0669 µg/mL
  Neutralization by PGT-130, IC95: 0.134 µg/mL
  neutralization IC50 (pseudovirus): 0.0089 µg/mL
[24]
  Neutralization by PGT-130, IC50: > 10 µg/mL
  Neutralization by PGT-130, IC80: > 10 µg/mL
  Neutralization by PGT-130, IC90: > 10 µg/mL
  Neutralization by PGT-130, IC95: > 10 µg/mL
  neutralization IC50 (pseudovirus): > 10 µg/mL
[10]
  IC50 (µg/mL), pseudovirus neutralization: 27.9 µg/mL
[25]
  Neutralization by PGT-130, IC50: 0.0182 µg/mL
  Neutralization by PGT-130, IC80: 0.272 µg/mL
  Neutralization by PGT-130, IC90: 1.31 µg/mL
  Neutralization by PGT-130, IC95: 5.48 µg/mL
  neutralization IC50 (pseudovirus): 0.0182 µg/mL
[26]
  Neutralization by PGT-130, IC50: > 10 µg/mL
  Neutralization by PGT-130, IC80: > 10 µg/mL
  Neutralization by PGT-130, IC90: > 10 µg/mL
  Neutralization by PGT-130, IC95: > 10 µg/mL
  neutralization IC50 (pseudovirus): > 10 µg/mL
[11]
  IC50 (µg/mL), pseudovirus neutralization: > 50 µg/mL
[12]
  IC50 (µg/mL), pseudovirus neutralization: 2.23 µg/mL
[13]
  IC50 (µg/mL), pseudovirus neutralization: > 50 µg/mL
[27]
  Neutralization by PGT-130, IC50: 0.0173 µg/mL
  Neutralization by PGT-130, IC80: 0.263 µg/mL
  Neutralization by PGT-130, IC90: 1.32 µg/mL
  Neutralization by PGT-130, IC95: 6.13 µg/mL
  neutralization IC50 (pseudovirus): 0.0173 µg/mL
[28]
  Neutralization by PGT-130, IC50: 0.0054 µg/mL
  Neutralization by PGT-130, IC80: 0.0251 µg/mL
  Neutralization by PGT-130, IC90: 0.0643 µg/mL
  Neutralization by PGT-130, IC95: 0.164 µg/mL
  neutralization IC50 (pseudovirus): 0.0054 µg/mL
WT JR-FL gp120 (HIV-1)
  EC50: 0.2 µg/mL

## 5114_A19 (PGT-128) (antibody)
[1]
  IC50 (µg/mL), pseudovirus neutralization: > 50 µg/mL
[2]
  IC50 (µg/mL), pseudovirus neutralization: 0.019 µg/mL
[3]
  IC50 (µg/mL), pseudovirus neutralization: > 50 µg/mL
[4]
  IC50 (µg/mL), pseudovirus neutralization: > 50 µg/mL
[5]
  IC50 (µg/mL), pseudovirus neutralization: > 50 µg/mL
[6]
  IC50 (µg/mL), pseudovirus neutralization: 8.21 µg/mL
[7]
  IC50 (µg/mL), pseudovirus neutralization: > 50 µg/mL
[8]
  IC50 (µg/mL), pseudovirus neutralization: 0.313 µg/mL
[9]
  IC50 (µg/mL), pseudovirus neutralization: 0.995 µg/mL
[10]
  IC50 (µg/mL), pseudovirus neutralization: 0.01 µg/mL
[11]
  IC50 (µg/mL), pseudovirus neutralization: > 50 µg/mL
[12]
  IC50 (µg/mL), pseudovirus neutralization: 0.004 µg/mL
[13]
  IC50 (µg/mL), pseudovirus neutralization: 0.319 µg/mL
WT JR-FL gp120 (HIV-1)
  EC50: 0.1 µg/mL
